How the values were obtained:
[1] = target: T1, hPD-L2.ECD.His (SinoBiological-10292-H08H) (human, UniProt Q9BQ51 20-220); experiment: ELISA on coated protein (1 ug/mL)
T1 construct: extracellular domain; His tag
T1 sequence (looked up): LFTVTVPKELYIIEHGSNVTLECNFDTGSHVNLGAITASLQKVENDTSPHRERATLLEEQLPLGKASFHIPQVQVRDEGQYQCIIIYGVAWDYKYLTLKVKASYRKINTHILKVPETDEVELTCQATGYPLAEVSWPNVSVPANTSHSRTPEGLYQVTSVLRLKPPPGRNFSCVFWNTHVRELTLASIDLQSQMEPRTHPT
Method: The plate was incubated at ambient temperature for 1 hour. The binding of the antibodies to the immobilized proteins was detected by HRP-labeled goat anti-human IgG antibody. The color was developed by dispensing 100 μL of TMB substrate, and then stopped by 100 μL of 2N HCl. The absorbance was read at 450 nm and 540 nm using a microplate spectrophotometer, respectively.

[2] = target: T2, mouse PD-L1 on 293F cells (W315-293F.mPro1.C1) (mouse, UniProt Q9EP73 19-290); experiment: FACS on mouse PD-L1 293F cells
T2 construct: whole, on cells; also called cell surface mouse PD-L1; Mouse PD-L1-expressing 293F cell
Method: (§1) After washing with 1×PBS/1% BSA, the secondary antibody PE-labeled goat anti-human IgG was applied and incubated with cells at 4° C. for 1 hour. […] Human IgG1 and IgG4 isotype antibodies were used as negative control. The cells were then washed and resuspended in 1×PBS/1% BSA. MFI of the cells was measured by a flow cytometer (BD) and analyzed by FlowJo (version 7.6.1).

[3] = target: T3, human PD-L1 on CHO-K1 cells (W315-CHO-K1.hPro1.C11) (human, UniProt Q9NZQ7 19-290); experiment: FACS on human PD-L1 CHO-K1 cells
T3 construct: whole, on cells; also called cell surface human PD-L1; Human PD-L1-expressing CHO-K1 cell
Method: as §1

[4] = target: human serum Albumin (human, UniProt P02768 25-609); experiment: non-specific binding ELISA, antigen coated at 2 ug/mL
Method: Non-specific binding ELISA was performed in 96-well high binding plates (Nunc-Immuno Plate, Thermo Scientific). The plate was coated with various antigens (as listed in the left column of Table 11) at 2 μg/mL overnight at 4° C. After blocking with 2% BSA-PBS, 10 μg/ml antibodies were added to the plate and incubated for 2 hours. […] The HRP signal was detected by adding TMB peroxidase substrate and the reaction was stopped after 12 minutes using 2M HCl. The absorbance at 450 nm was read using a microplate reader (Molecular Device). All incubation steps were performed at room temperature. The plate was washed with PBST (0.05% Tween20-PBS) between steps.

[5] = target: T3, human PD-L1 on CHO-K1 cells …; experiment: FACS affinity on human PD-L1 cells, quantitative beads
Method: Binding affinities of testing antibodies to cell surface human, cynomolgus and mouse PD-L1 were determined by flow cytometry on the engineering cell lines, respectively. The cells were transferred in to 96-well U-bottom plates (BD) at a density of 5×10⁴ cells/well. Antibodies to be tested were 1: 2-fold serially diluted in 1% BSA/1×PBS and incubated with cells at 4° C. for 1 hr. Then, the plates were centrifuged at 1500 rpm for 4 mins and the supernatant was discarded. The secondary antibody, Alexa647 conjugated goat anti-human IgG Fc (Jackson, Cat No. 109-605-098, Lot No. 121363), was added to re-suspend cells and incubated at 4° C. in the dark for 30 min. The cells were washed once and re-suspended in 100 μL 1% BSA/1×PBS, then measured by flow cytometry (BD Canto II) and analyzed by FlowJo. Fluorescence intensity was converted to bound molecules/cell based on the quantitative beads (Quantum™ MESF Kits, Bangs Laboratories). KD value was calculated by Graphpad Prism5.

[6] = target: T3, human PD-L1 on CHO-K1 cells …; experiment: FACS competition: antibody titrated against 5 ug/mL human PD-1 ECD mFc on human PD-L1 CHO-K1 cells
Method: as §1, with “Human PD-L1 transfected W315-CHO-K1.hPro1.C11 cells were transferred into 96-well U-bottom plates at a density of 1×10⁵ cells/well. […] After” for “After”, “anti-mouse” for “anti-human”

[7] = target: PD-L1 (target of the serum stability flow cytometry); experiment: flow cytometry binding to PD-L1 of AP3R2-1A3-z12-hIgG1 kept 0, 1, 4, 7 or 14 days in human serum at 37 C
Method: Fresh human serum was prepared from healthy donor by centrifugation. Testing antibody was mixed with serum and ensure the serum content >90% of total volume. The mix aliquots were incubated at 37° C. for 0 day, 1 day, 4 days, 7 days and 14 days, respectively. At the indicated time point the samples were quickly-frozen in liquid nitrogen and stored at −80° C. until analysis. The bindings to PD-L1 of the aliquots at above time points were evaluated by flow cytometry, respectively.

[8] = target: T3, human PD-L1 on CHO-K1 cells …; experiment: FACS competition on human PD-L1 CHO-K1 cells: titrated W3156 antibody mixed with 0.5 ug/mL biotinylated BMK8.hIgG4 (m5), SA-PE [A]
Method: Human PD-L1 expressing cells W315-CHO-K1.hPro1.C11 were transferred into 96-well U-bottom plates at a density of 1×10⁵ cells/well. […] Then the mixture was added to the cells in 96-well plates and incubated at 4° C. for 1 hour. After washing with 1×PBS/1% BSA, the secondary antibody SA-PE was applied and incubated with cells at 4° C. for 1 hour. The cells were then washed and resuspended in 1×PBS/1% BSA. MFI of the cells was measured by a flow cytometer and analyzed by FlowJo (version 7.6.1).

T3 sequence (Q9NZQ7 19-290): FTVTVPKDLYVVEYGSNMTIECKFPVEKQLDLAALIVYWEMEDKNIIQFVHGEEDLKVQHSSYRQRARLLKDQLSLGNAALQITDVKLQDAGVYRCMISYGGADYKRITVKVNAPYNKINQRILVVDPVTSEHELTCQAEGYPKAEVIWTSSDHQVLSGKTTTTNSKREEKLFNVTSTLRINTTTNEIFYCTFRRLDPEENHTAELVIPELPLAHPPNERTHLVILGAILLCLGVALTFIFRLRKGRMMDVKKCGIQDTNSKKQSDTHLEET
T2 sequence (Q9EP73 19-290): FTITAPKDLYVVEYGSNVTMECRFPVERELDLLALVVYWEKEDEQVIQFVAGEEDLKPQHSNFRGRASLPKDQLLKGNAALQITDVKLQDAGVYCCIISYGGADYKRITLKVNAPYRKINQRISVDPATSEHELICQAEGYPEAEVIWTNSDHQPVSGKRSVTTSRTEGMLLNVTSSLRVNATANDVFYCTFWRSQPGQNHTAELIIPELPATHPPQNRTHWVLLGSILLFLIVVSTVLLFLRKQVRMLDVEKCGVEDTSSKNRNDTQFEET
Chain of PD-L1 (target of the serum stability flow cytometry) (chain, as listed by the source): as the sequence (Q9NZQ7 19-290) above

binding result [1]: no binding (tested: 66.7 nM) | EC50 [2]: 1.24 nM | EC50 [3]: 0.458 nM | binding result [4]: no binding (tested: 10 µg/ml) | Kd [5]: 0.26 nM | IC50 [6]: 0.871 nM | EC50 (read off the curve) [7]: ~0.7 nM | IC50 (read off the curve) [8]: ~3 nM
B1: AP3R2-1A3-z12-hIgG1 (Fc fusion)
chain: EVQLVESGGGLVQPGGSLRLSCAASGHFSNLAVNWFRQAPGKERELVAGILWSGGSTFYADSVKGRFTISRGNAENMLYLQMNSLRAEDTAVYYCNTGTNWGQGTLVTVSS
notes: VHH-Fc (hIgG1) fusion of the humanized VHH; also called W3156-AP3R2-1A3-z12-hIgG1; W3156 antibody; not shown: Fc of human IgG1
